Data reported in patent US20240287547, “GENETIC MODIFICATION” (Peter Biotherapeutics, Inc., published 2024).

What was measured:
Assay in all cases: cell_activity; U937 RT-PCR; also edits KRAS in HEK293
[1] = molecular target: pb75 DLRR (7-zinc finger array + double R element) (artificial)
Text: (§1) As described above, each plasmid, pb74, pb75, and pb76 was introduced into U937 cells by electroporation. A “no DNA” transfection was used as control. […] post electroporation, cells transfected with these plasmids were detached and collected. Total RNAs from each condition were then extracted by using Trizol reagent. Five hundred nanograms of total RNA was then converted into DNA by reverse transcription (RT) reaction, followed by PCR using a primer set of Pop133 (SEQ ID. NO. 228) and Pop134 (SEQ ID. NO. 229). Three independent experiments were conducted. KRAS mRNA expression was quantitated by calculations of amplification band intensity of RT-PCR KRAS normalized by corresponding that of Ref-BMG using Bio-Rad Imagelab software. Introduction of pb74 (DLR), ob75 (DLRR), and pb76 (DLRRR) inhibit KRAS gene expression more than 50%.

[2] = molecular target: pb76 DLRRR (7-zinc finger array + triple R element) (artificial)
Chain of pb76 DLRRR (7-zinc finger array + triple R element) (artificial) (chain, as listed by the source): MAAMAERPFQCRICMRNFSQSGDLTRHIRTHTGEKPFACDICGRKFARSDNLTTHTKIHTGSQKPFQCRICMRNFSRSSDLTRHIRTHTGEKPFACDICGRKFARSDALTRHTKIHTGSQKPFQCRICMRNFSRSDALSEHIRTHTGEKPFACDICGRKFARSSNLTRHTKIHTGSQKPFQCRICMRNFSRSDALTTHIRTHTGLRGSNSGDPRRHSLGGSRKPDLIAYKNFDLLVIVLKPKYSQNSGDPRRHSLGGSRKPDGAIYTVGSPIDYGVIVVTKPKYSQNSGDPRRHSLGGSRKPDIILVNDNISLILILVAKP
Text: as §1

[3] = molecular target: pb74 DLR (7-zinc finger array + single R element) (artificial)
Chain of pb74 DLR (7-zinc finger array + single R element) (artificial) (chain, as listed by the source): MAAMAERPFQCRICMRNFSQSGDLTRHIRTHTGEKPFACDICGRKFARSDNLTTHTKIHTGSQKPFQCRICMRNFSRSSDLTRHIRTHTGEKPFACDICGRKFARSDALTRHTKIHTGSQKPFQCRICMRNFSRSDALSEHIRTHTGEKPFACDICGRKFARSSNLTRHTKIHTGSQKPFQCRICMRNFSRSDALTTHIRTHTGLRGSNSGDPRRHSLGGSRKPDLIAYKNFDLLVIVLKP
Text: as §1

Measured: activity

Chain of pb75 DLRR (7-zinc finger array + double R element) (artificial) (chain, as listed by the source): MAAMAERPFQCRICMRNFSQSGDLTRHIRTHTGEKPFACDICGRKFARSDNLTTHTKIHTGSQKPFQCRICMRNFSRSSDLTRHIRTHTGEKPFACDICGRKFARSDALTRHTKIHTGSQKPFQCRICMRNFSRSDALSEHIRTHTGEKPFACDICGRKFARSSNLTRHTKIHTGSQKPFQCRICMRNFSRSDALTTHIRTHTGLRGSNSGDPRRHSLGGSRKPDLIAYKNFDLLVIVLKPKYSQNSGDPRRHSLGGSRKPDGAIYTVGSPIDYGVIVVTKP

B1: KRAS exon 1 site (dsDNA)
DNA 1: TTGGAGCTGGTGGCGTAGGCA
DNA 2: TGCCTACGCCACCAGCTCCAA
> 50 % inhibition of KRAS mRNA: all assays above
